{"source": "the NTF2 design screens of Basanta et al. (2020)", "data": [{"experiment": "protease stability score; higher = more stable; yeast display proteolysis, trypsin and chymotrypsin;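 note: log10 excess protease needed over predicted unfolded state with 0 meaning unfolded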", "values": [{"sequence": "DESAIQHWRKMLEAVETGDEKKIQKQADPNAKFRVGDKVIHGREKYAKQKVQEARQIRVEIDIKDWENRPGRVNLDADARYEINGQPVTFRLEVEMRMHNGHFVSVDVQFDEEKWEKLHK", "protease stability score": 0.037}, {"sequence": "DESAKRKFEEFLEQIRHNNPDELKKMMDKDVRVNIGDKEINGRDQVKNELERFAKEQRFRIQVKHMSVSNGHLHAKVTVESTHNGSPDSDKFQVQANFQGDKFKEMQWDKDS", "protease stability score": -0.189}, {"sequence": "DESAQRLFEELLKAEHDGDRDRYQQLIDPNARIQVGDKSVKGRENIKHDVYRKHKEIRFSIQSMNNKVDGDKVKVDAKVVKEHDGRPDHAQITATVRARGDKVDEIRKEERK", "protease stability score": -0.245}, {"sequence": "DESARDIASTIVSALHNNNPSQFSENLDKDATLNIGDKRIHGKERAEEHLSNQIKSLRIQFDDYQVRVHNGDVIINLDYKRDHNGEPRRVKQRVTIQIHNGRAQSVVVKETS", "protease stability score": 0.365}, {"sequence": "DESAVNNLVRLAKAWLRGDPKKIEHLVDKDAKAQIGDKTLHGREDLKDHADELRKDMTVDVKSVTNNNQNGQAVVDVKFEADRNGRPETHTLDAKATAHNGDIVDVKIHQDG", "protease stability score": -0.304}, {"sequence": "DESDLSRQAKELIDNWETGNPDKMRKLMDENVTADVGDKRWHGRDEVVKWFKTLVDSIDHIEVREFKVSGNSVTFTAEANVNGKKATFQVVIEVHNGKIKDVKVNPDDLKQLEK", "protease stability score": 1.58}, {"sequence": "DESDMKRQAELFIRAVNTGDSDKVRKMADKDAHYDVGDKEIHGRENAARWVQRLREQADEVTVRDVRVQGEKVVIDVQADVNGRDVRMDLVIEFHNGKAQEVKMKHS", "protease stability score": 0.025}, {"sequence": "DESDQDRFRKYLHQLQNGDEKKLRKNMDPNVKFEVGEKRYEGREEYAKKVRQEVEEMRFSFKIHDIEVHNGRVTVEFEVTYEHNGRPDHEHVRIEMEVHNGKIRSVRQESDK", "protease stability score": 0.043}, {"sequence": "DESDVEDLAKDAINAYQTGDPDQVARMADKDVKFTVGDHEVKGRNQLREHLQTIFHNVDHFDVTDMRINGNKARIHFTANVNGQTERNVMIIVAHNGKVRKMAIHSQ", "protease stability score": -0.566}, {"sequence": "DESDVERLTEIMEQNDFDQWVDQADKDAELVVGDKTLKGRETIQRWLKILSERVDHVSIKHIRNNGEEVDVKMTMIINGHRFEFVVNLTVHNGKITRFNFNFRDPDQLRRLHDQMS", "protease stability score": 1.25}, {"sequence": "DESDVKRAQDMVQNEQDGNEEEFDKLLDENVHFNVGDKRVNGRQQYLREVKKKRDQIRFSIKIDSVRARNGEATIDASARMVVNGQPKTYKFVIHVVQHNGDVRHVRISVPEEDVKRLKS", "protease stability score": 0.212}, {"sequence": "DESEEKELEDILRRNDWERMSELAPPDVHATVGDTRLHGMEQVLSLFQTLNKRADQIHVKTLSVHNGQLHAVIVMQFNGRRVELHFDFEVKNGEFTSARVQARTEEEEKVMKEVLR", "protease stability score": 1.05}, {"sequence": "DESEHAKRVADKFRTAAKNGDPDQFTQLADPNAKIDIGDKDVSGRERLSEVVNELNKRIDHLEVKVRSVTQRGNHLVVKADVDAEHNGQEIRRKVDIVLRNNNGRVNLEMIRYR", "protease stability score": 1.03}, {"sequence": "DESELEQLKRDWEHNDFDQLVRNMDKDVRLRIGNKQWHGHEQVQNFNRKMQEQIDHQHIRHIETRGNKIRVTYEIDINGQTMVVNAEAYIDNGRLKSMHVKFTSEEHRKVFEKAVD", "protease stability score": 0.746}, {"sequence": "DESELERAIEMLEQNDPEEARRQVDKNAHMQVGEKSWTGREDVQTALVKHNEHVDHVEVKSVTKRGDKAEVKARVEFNGHNLKANFIVEVHNGKIKHVRVEVTDEEQKKLMRELLQ", "protease stability score": -0.363}, {"sequence": "DESEMDTAVKIVEKGDPHQYKKLIDPNAKIIVGDKELHGREDVERLLHKLYEQADHVQINSITVQGDELRVDAQFKFNGRDIRMVVEFRVHNGRVKSAHIQATSEEQERELSKMIS", "protease stability score": 1.35}, {"sequence": "DESEMQKAVEDIVKMLETGNETKFQENAPPDVRVDVGDKRFTGREDLRKWVHDVKERVDRIRVTHYSAHGEDVVIDVVYRHNGTNERANIVVHIHNGRMVQMKVQQS", "protease stability score": 0.944}, {"sequence": "DESEQASEVAHEMRHLYRKNDEDRFRELMDENVRARVGDKEYHGREDVLRMFQHEMRTADHMDVQVNDFRKEGDSIIIHADLKYVSNGNDRTRRLVFVLEVNGDTITLLQQQDQ", "protease stability score": 0.096}, {"sequence": "DESHARHLQRVFEKNDWQRLVELADEDVRIQIGNYDYHGRTAAQQMFEKLSKQIDHMEVKSMRVQGNKLQFDFEVNFNGKRNQAHFEMHFSNGRIKKIRFQFRDEEHEKDFDRHFS", "protease stability score": 1.46}, {"sequence": "DESIMNMMHQLIDAMETNDPEKMKRLADKDATFVYGDKTVHGRHQAEEWIHKVKKHQRFRIDLRDVKADNGRVTVNAQIDQNHNGQPSQRTVDAKAEVSNGRVKHASVRRTS", "protease stability score": -0.117}, {"sequence": "DESITEFASHWKEVLEHGDFRRMADNVDEDVKVRIGDKEIHGRTRYRRRAKKQEDEISFRLQDLHVEVQGDHIVAKFQATVKINGQPNTFTVNVVMRVHNGRIKYMEQQFSEEDEDKLTQ", "protease stability score": 0.534}, {"sequence": "DESKEAHTLAKKYVELVKKGDQEKMKTMFDPNAKAHIGDKTYHGMTDFVETLVEQAKRVDHQSVDVKSVEVDGDHIDVEVTVKYTYNGQNRSNVERFIVRNHNGKWRVKEWHDK", "protease stability score": -0.145}, {"sequence": "DESKKAKKFMEEYKRAIETGDEDTAKNLADKDARVKVGDTTYTGMDHIRERVVTEAKQVDHITFEVKEMQTRPGRLKVRMDVIFDHDGRKDRKEVVLVFKDNNGKVLLLSASYQ", "protease stability score": -0.041}, {"sequence": "DESKQKQFEHFLEVVKTGNEEDLRKNMDKDVRVQIGDKQVHGRENIASELVRRQKEIKLHIRDMRIDVHNGRVQASVDVVDNINGKPTRYSYRFEYNIENGKLKSARIHIDPDQVRKVEE", "protease stability score": 1.03}, {"sequence": "DESKQRTFAEELLTAWETGNDDQARKLADPNVRFHIGDKEISGRENFAKWAKEVRDRVDHIRYEHIEIRGEKVRVNVQLEFDGKTERRVIVFNVHDGQVKSMDVKTT", "protease stability score": 1.34}, {"sequence": "DESKVNEIVQKFVNAVREGNENHLRSLMDKDVTLHVGDRTWHGREQVASFMAHVAKRVDRIRIVHIEIHGDKANVNVRFDVNGTEVQLTMDIRIKNGRIMKIHMSPEDEKKLQG", "protease stability score": 1.76}, {"sequence": "DESLADVFRRLLEAYRNGDEQKLRDNVDPNAKFNIGDKRFSGREQFARDMHKERKEIRVSIQLHEYDNQGEDVDFTFQFSAEVNGEPVHDTVRVEVHAHNGKIKRVHMHMSEKFQHQLRG", "protease stability score": -0.027}, {"sequence": "DESLAEQWMRDIKSNNEERFRRYVDPNVHADVGNFKVHGRHDLVEQLRKLLEQVDHLDYHSVSADGDDVTVDVVIDVNGNTVRYELIVRFHNGQAHSLQMHVTNPDQDRQLHEVVK", "protease stability score": -0.013}, {"sequence": "DESLEDMARQLNTALQTNNPESVKEMFDKNARLEVGDKTWKGREHIDQWANRLRDEIRYEVRRFDLRVHGDKIEVNVHEEIQINGRPKSVSYSYTMRAHNGRIKHARYQPDPDAERRKKK", "protease stability score": 0.031}, {"sequence": "DESLEERLDTLRKVEEQGDEDTAREQADPNVKIVVGDRRVHGMDEQLEELRRRVKEARVTIESLSVDAHGDKVDVKVRLTFTIDGRPASVNLHQHYQLQNGKFKHVEARFSEEDRDELQT", "protease stability score": 0.846}, {"sequence": "DESLHRWYERLQEALEHGDEDRLRKNADKDVQVDVGDKRVHGSEHYAHELVRESREMDFHIHRMEVSVTGNRITVDYVYDREHNGTPQSKRVQERYQAHNGKLKRASVQETD", "protease stability score": -0.093}, {"sequence": "DESLMKVAQEVHDAWNQGDPTKLQENFDKDAEIQVGDKQIHGREDATRELDRKKKQQRFEVQVTSMTAQNGDVKVDARFHFKHNGRPDERRFKLTINAENGRIQEASIDQTK", "protease stability score": -0.151}, {"sequence": "DESLQHMAEEMLEVWQTGDKERAATMMDKDARVRVGDHTVRGRESLQKNIETEKEQMRVQIRHVDARVHNGRVDVKVEVELDHNGKPQRVVYNIDFRAHNGRVQEIHIQEDG", "protease stability score": -0.181}, {"sequence": "DESLRKLLERIWRALTSGDPDELRKLADEDAKFQIGDKRINGMNEAAERWATRVRQLRVRIEDVKQHVEGDKVEAHLDVVREKNGQPQKHEEHVRMRAEGDRAKELVIQISQ", "protease stability score": 0.031}, {"sequence": "DESLRSKAEEFLKAIEHGDPDEASRQLDPNARFEIGDKEITGRETFDRTMHETRNQMRLEVKSYDARASNGRVHMEVRFQATHNGQPQDNREVQDFQFSNGRIERVSVEKDS", "protease stability score": -0.463}, {"sequence": "DESLVEILKKLAKAFNENDPDHLVKLFDEDARLDYGDTSVHGREQIKRLMEDWKRRMTVKIRVNHIDVKNGRAQMKADLTIRHNGKPDTNKVEVELHAHNGRNKEVVFERTK", "protease stability score": 0.279}, {"sequence": "DESMQKEVHDFLKAQMTNNEDQLRRQADPNARFVYGNKTLHGMDQAAKHLVKLYREATFRIESVSIDAQGDKADIKQTFIVDINGKPDRDTADIKIKFHNGTIKEVNIQVDEEKERKIRS", "protease stability score": -0.218}, {"sequence": "DESNREVYQKLLNAQTKGDEETAKELADPNASVQIGDKQIHGMDQYVKQMTRDKRRARVRIRDVRVDVQGDNIRVSAHFQEDHNGKPDERTMTQSYKVENGKMKSASVHSLS", "protease stability score": -0.124}, {"sequence": "DESQAEALHEVLQAERTNDPKKVEEQMDPHVNIVIGDKTYHGRDRIREDVKRKIDEMRVHVESVRFDEQGDKARAEATLRYNHNGRPSSKKIVIQMKAENGQIKTMRVHDTK", "protease stability score": -0.646}, {"sequence": "DESQAKEFVDNFKTNNREELQKQVDKDAKMIVGNKEYHGEEQVQDALRDLNEEVDHLTIKSVELKGNSVTIYFIIVINGTRMTVHVVAVFHNGRVKKEVWTATDEDDKRKIDQVVG", "protease stability score": 0.281}, {"sequence": "DESQHQSLAKNLVRIFEEGDEDDVRKLADKDARLEVGDHELRGREQVAKFYKRVRDRIDELEIRDVHVQGERVSVHVVVRYNGRHVDFKINIVAHNGRITRVRVDPDRFRQLHS", "protease stability score": 1.64}, {"sequence": "DESQLELVKELLDVLQTGNPDEARQLVDKDVNIRIGDRVIHGREQLQSHVEKVKREQQVHVNITDMKVKGDKIKVVAQYKNHHNGQPSHNKMVLDAEVNGDKIHRMEYKSQS", "protease stability score": -0.453}, {"sequence": "DESQQKHLTRLLEDNDFDRLAELADKHVRVEYGDQSYQGRETFQEMQEKLKKRADHLTYRSIDNQGDKIKVDFVLNVNGKDVRLQFDFRFNNGHIKEMTITATSEENLHKFEEALS", "protease stability score": -0.094}, {"sequence": "DESQVDEAKKMAKVWEDGDPDQLRRMADPNAKMHIGDKDIRGHTEATRWVRHLSEHMRQRLDSVRVDTEPNRAEAKIQLTVDVNGKPDRYTAHLNMVVDNGRVRKLEVRFDEEDKKRRQS", "protease stability score": -0.139}, {"sequence": "DESRKAREYMDKFKEIMDTGDPDKLRNLVPPDVTMQYGDRSLKGREEFVEHLQELLERADHVDVTVVDVKQDGDQLHFEVRVTYEENGERREYTFVFVAIVQGDKVRVKEMREK", "protease stability score": 0.065}, {"sequence": "DESVENTVTEILEAEQQNNEEELRRLADPNAEVRVGEKTIHGMDEAVHQIAHELKQQRVEYSDMKISVNNGRARIDVEVEVEKNGRPHTSHYERTIEMHNGRMTHMEQRDDG", "protease stability score": -0.524}, {"sequence": "DESVKERMKRILETGDWKKLVEMADEDASVKVGEKEFHGREQVSDFFKELQDQADTQEIKHVSVHGEHVVNTMVIRFNGKEVHLVLTVQLTNGKIHSASVKFTSEEHHKIMLRAIS", "protease stability score": 0.257}, {"sequence": "DESVLEMAERIIEAFNNGDPERAVNQADPNVKITVGDKSITGREDLRRELEKQLKEQEQHIQVLRVTDHNGQAQMDIRMTSEKNGNPDHRRATVQFHATNGKLQTMRVDQRG", "protease stability score": -0.599}, {"sequence": "DESVRRNFEDLLRAEETGDPDRVMDLVDPNARIQVGDKYLQGREQIDETMERHKSEIRFSIDRLSATDHNGVVDVTMSMKKNVNGKPKKFRAEVNVKAHNGKLKLLDMKIDG", "protease stability score": -0.284}, {"sequence": "DESVTEQANKMLDNIEKNNPEKVREQVDPNAKLQIGDKTLSGREHVQKQVEREMKDISVTRDLKSVNVRNGRAVFDMTVDFDVNGKPIHAHQVMEVQATNGRIKSVTYKIDTEELRKIDK", "protease stability score": -0.499}]}]}
